Results taken from article PMC7367873, “Dissecting the sequence determinants for dephosphorylation by the catalytic subunits of phosphatases PP1 and PP2A” (Nature Communications, 2020).
Blank lines part the entries; values can stand above or below the molecule they belong to.

Assays:
[1] = tested on: GFP-14-3-3β and its binding proteins; assay: GFP-14-3-3β co-IP with LC-MS/MS label-free quantification, untreated versus PP1c-treated; design: species or system human; details: GFP-14-3-3β co-IP LC-MS/MS; PP1 vs untreated; student's t-test; label-free quantification, 3 replicates each
GFP-14-3-3β = GFP-14-3-3β co-IP with LC-MS/MS, untreated GFP-14-3-3β versus GFP control (14-3-3 interactome); assay type: binding, human; details: GFP-14-3-3β co-IP LC-MS/MS; untreated vs GFP; student's t-test; label-free quantification, 3 replicates each

B1: CCDC47 (protein, UniProt Q96A33 21-483, looked up)
PAT complex subunit CCDC47: KFDDFEDEEDIVEYDDNDFAEFEDVMEDSVTESPQRVIITEDDEDETTVELEGQDENQEGDFEDADTQEGDTESEPYDDEEFEGYEDKPDTSSSKNKDPITIVDVPAHLQNSWESYYLEILMVTGLLAYIMNYIIGKNKNSRLAQAWFNTHRELLESNFTLVGDDGTNKEATSTGKLNQENEHIYNLWCSGRVCCEGMLIQLRFLKRQDLLNVLARMMRPVSDQVQIKVTMNDEDMDTYVFAVGTRKALVRLQKEMQDLSEFCSDKPKSGAKYGLPDSLAILSEMGEVTDGMMDTKMVHFLTHYADKIESVHFSDQFSGPKIMQEEGQPLKLPDTKRTLLFTFNVPGSGNTYPKDMEALLPLMNMVIYSIDKAKKFRLNREGKQKADKNRARVEENFLKLTHVQRQEAAQSRREEKKRAEKERIMNEEDPEKQRRLEEAALRREQKKLEKKQMKMKQIKVKAM
Difference (log2), PP1 vs untreated [1]: -0.5387 log2 | Difference (log2), untreated vs GFP (GFP-14-3-3β): 1.192 log2

B2: FARSA (protein, UniProt Q9Y285 2-508, looked up)
Phenylalanine--tRNA ligase …: ADGQVAELLLRRLEASDGGLDSAELAAELGMEHQAVVGAVKSLQALGEVIEAELRSTKHWELTAEGEEIAREGSHEARVFRSIPPEGLAQSELMRLPSGKVGFSKAMSNKWIRVDKSAADGPRVFRVVDSMEDEVQRRLQLVRGGQAEKLGEKERSELRKRKLLAEVTLKTYWVSKGSAFSTSISKQETELSPEMISSGSWRDRPFKPYNFLAHGVLPDSGHLHPLLKVRSQFRQIFLEMGFTEMPTDNFIESSFWNFDALFQPQQHPARDQHDTFFLRDPAEALQLPMDYVQRVKRTHSQGGYGSQGYKYNWKLDEARKNLLRTHTTSASARALYRLAQKKPFTPVKYFSIDRVFRNETLDATHLAEFHQIEGVVADHGLTLGHLMGVLREFFTKLGITQLRFKPAYNPYTEPSMEVFSYHQGLKKWVEVGNSGVFRPEMLLPMGLPENVSVIAWGLSLERPTMIKYGINNIRELVGHKVNLQMVYDSPLCRLDAEPRPPPTQEAA
Difference (log2), PP1 vs untreated [1]: -0.541 log2 | Difference (log2), untreated vs GFP (GFP-14-3-3β): 1.078 log2

B3: UBTF (protein, UniProt P17480 1-764, looked up)
Nucleolar transcription …: MNGEADCPTDLEMAAPKGQDRWSQEDMLTLLECMKNNLPSNDSSKFKTTESHMDWEKVAFKDFSGDMCKLKWVEISNEVRKFRTLTELILDAQEHVKNPYKGKKLKKHPDFPKKPLTPYFRFFMEKRAKYAKLHPEMSNLDLTKILSKKYKELPEKKKMKYIQDFQREKQEFERNLARFREDHPDLIQNAKKSDIPEKPKTPQQLWYTHEKKVYLKVRPDATTKEVKDSLGKQWSQLSDKKRLKWIHKALEQRKEYEEIMRDYIQKHPELNISEEGITKSTLTKAERQLKDKFDGRPTKPPPNSYSLYCAELMANMKDVPSTERMVLCSQQWKLLSQKEKDAYHKKCDQKKKDYEVELLRFLESLPEEEQQRVLGEEKMLNINKKQATSPASKKPAQEGGKGGSEKPKRPVSAMFIFSEEKRRQLQEERPELSESELTRLLARMWNDLSEKKKAKYKAREAALKAQSERKPGGEREERGKLPESPKRAEEIWQQSVIGDYLARFKNDRVKALKAMEMTWNNMEKKEKLMWIKKAAEDQKRYERELSEMRAPPAATNSSKKMKFQGEPKKPPMNGYQKFSQELLSNGELNHLPLKERMVEIGSRWQRISQSQKEHYKKLAEEQQKQYKVHLDLWVKSLSPQDRAAYKEYISNKRKSMTKLRGPNPKSSRTTLQSKSESEEDDEEDEDDEDEDEEEEDDENGDSSEDGGDSSESSSEDESEDGDENEEDDEDEDDDEDDDEDEDNESEGSSSSSSSSGDSSDSDSN
Difference (log2), PP1 vs untreated [1]: -0.5334 log2 | Difference (log2), untreated vs GFP (GFP-14-3-3β): 1.529 log2

B4: DNTTIP2 (protein, UniProt Q5QJE6 1-756, looked up)
Deoxynucleotidyltransferase …: MVVTRSARAKASIQAASAESSGQKSFAANGIQAHPESSTGSDARTTAESQTTGKQSLIPRTPKARKRKSRTTGSLPKGTEPSTDGETSEAESNYSVSEHHDTILRVTRRRQILIACSPVSSVRKKPKVTPTKESYTEEIVSEAESHVSGISRIVLPTEKTTGARRSKAKSLTDPSQESHTEAISDAETSSSDISFSGIATRRTRSMQRKLKAQTEKKDSKIVPGNEKQIVGTPVNSEDSDTRQTSHLQARSLSEINKPNFYNNDFDDDFSHRSSENILTVHEQANVESLKETKQNCKDLDEDANGITDEGKEINEKSSQLKNLSELQDTSLQQLVSQRHSTPQNKNAVSVHSNLNSEAVMKSLTQTFATVEVGRWNNNKKSPIKASDLTKFGDCGGSDDEEESTVISVSEDMNSEGNVDFECDTKLYTSAPNTSQGKDNSVLLVLSSDESQQSENSENEEDTLCFVENSGQRESLSGDTGSLSCDNALFVIDTTPGMSADKNFYLEEEDKASEVAIEEEKEEEEDEKSEEDSSDHDENEDEFSDEEDFLNSTKAKLLKLTSSSIDPGLSIKQLGGLYINFNADKLQSNKRTLTQIKEKKKNELLQKAVITPDFEKNHCVPPYSESKYQLQKKRRKERQKTAGDGWFGMKAPEMTNELKNDLKALKMRASMDPKRFYKKNDRDGFPKYFQIGTIVDNPADFYHSRIPKKQRKRTIVEELLADSEFRRYNRRKYSEIMAEKAANAAGKKFRKKKKFRN
Difference (log2), PP1 vs untreated [1]: -0.5492 log2 | Difference (log2), untreated vs GFP (GFP-14-3-3β): 2.447 log2

B6: KANK2 (protein, UniProt Q63ZY3 1-851, looked up)
KN motif and ankyrin repeat …: MAQVLHVPAPFPGTPGPASPPAFPAKDPDPPYSVETPYGYRLDLDFLKYVDDIEKGHTLRRVAVQRRPRLSSLPRGPGSWWTSTESLCSNASGDSRHSAYSYCGRGFYPQYGALETRGGFNPRVERTLLDARRRLEDQAATPTGLGSLTPSAAGSTASLVGVGLPPPTPRSSGLSTPVPPSAGHLAHVREQMAGALRKLRQLEEQVKLIPVLQVKLSVLQEEKRQLTVQLKSQKFLGHPTAGRGRSELCLDLPDPPEDPVALETRSVGTWVRERDLGMPDGEAALAAKVAVLETQLKKALQELQAAQARQADPQPQAWPPPDSPVRVDTVRVVEGPREVEVVASTAAGAPAQRAQSLEPYGTGLRALAMPGRPESPPVFRSQEVVETMCPVPAAATSNVHMVKKISITERSCDGAAGLPEVPAESSSSPPGSEVASLTQPEKSTGRVPTQEPTHREPTRQAASQESEEAGGTGGPPAGVRSIMKRKEEVADPTAHRRSLQFVGVNGGYESSSEDSSTAENISDNDSTENEAPEPRERVPSVAEAPQLRPAGTAAAKTSRQECQLSRESQHIPTAEGASGSNTEEEIRMELSPDLISACLALEKYLDNPNALTERELKVAYTTVLQEWLRLACRSDAHPELVRRHLVTFRAMSARLLDYVVNIADSNGNTALHYSVSHANFPVVQQLLDSGVCKVDKQNRAGYSPIMLTALATLKTQDDIETVLQLFRLGNINAKASQAGQTALMLAVSHGRVDVVKALLACEADVNVQDDDGSTALMCACEHGHKEIAGLLLAVPSCDISLTDRDGSTALMVALDAGQSEIASMLYSRMNIKCSFAPMSDDESPTSSSAEE
Difference (log2), PP1 vs untreated [1]: -0.5359 log2 | Difference (log2), untreated vs GFP (GFP-14-3-3β): 1.477 log2

Further lines, with some results ahead:

Difference (log2), PP1 vs untreated [1]: -0.5557 log2
B5: DHX15 (protein, UniProt O43143 1-795, looked up)
ATP-dependent RNA helicase …: MSKRHRLDLGEDYPSGKKRAGTDGKDRDRDRDREDRSKDRDRERDRGDREREREKEKEKELRASTNAMLISAGLPPLKASHSAHSTHSAHSTHSTHSAHSTHAGHAGHTSLPQCINPFTNLPHTPRYYDILKKRLQLPVWEYKDRFTDILVRHQSFVLVGETGSGKTTQIPQWCVEYMRSLPGPKRGVACTQPRRVAAMSVAQRVADEMDVMLGQEVGYSIRFEDCSSAKTILKYMTDGMLLREAMNDPLLERYGVIILDEAHERTLATDILMGVLKEVVRQRSDLKVIVMSATLDAGKFQIYFDNCPLLTIPGRTHPVEIFYTPEPERDYLEAAIRTVIQIHMCEEEEGDLLLFLTGQEEIDEACKRIKREVDDLGPEVGDIKIIPLYSTLPPQQQQRIFEPPPPKKQNGAIGRKVVVSTNIAETSLTIDGVVFVIDPGFAKQKVYNPRIRVESLLVTAISKASAQQRAGRAGRTRPGKCFRLYTEKAYKTEMQDNTYPEILRSNLGSVVLQLKKLGIDDLVHFDFMDPPAPETLMRALELLNYLAALNDDGDLTELGSMMAEFPLDPQLAKMVIASCDYNCSNEVLSITAMLSVPQCFVRPTEAKKAADEAKMRFAHIDGDHLTLLNVYHAFKQNHESVQWCYDNFINYRSLMSADNVRQQLSRIMDRFNLPRRSTDFTSRDYYINIRKALVTGYFMQVAHLERTGHYLTVKDNQVVQLHPSTVLDHKPEWVLYNEFVLTTKNYIRTCTDIKPEWLVKIAPQYYDMSNFPQCEAKRQLDRIIAKLQSKEYSQY
Difference (log2), untreated vs GFP (GFP-14-3-3β): 1.871 log2

Difference (log2), PP1 vs untreated [1]: -0.548 log2
B7: FUS (protein, UniProt P35637 1-526, looked up)
RNA-binding protein FUS: MASNDYTQQATQSYGAYPTQPGQGYSQQSSQPYGQQSYSGYSQSTDTSGYGQSSYSSYGQSQNTGYGTQSTPQGYGSTGGYGSSQSSQSSYGQQSSYPGYGQQPAPSSTSGSYGSSSQSSSYGQPQSGSYSQQPSYGGQQQSYGQQQSYNPPQGYGQQNQYNSSSGGGGGGGGGGNYGQDQSSMSSGGGSGGGYGNQDQSGGGGSGGYGQQDRGGRGRGGSGGGGGGGGGGYNRSSGGYEPRGRGGGRGGRGGMGGSDRGGFNKFGGPRDQGSRHDSEQDNSDNNTIFVQGLGENVTIESVADYFKQIGIIKTNKKTGQPMINLYTDRETGKLKGEATVSFDDPPSAKAAIDWFDGKEFSGNPIKVSFATRRADFNRGGGNGRGGRGRGGPMGRGGYGGGGSGGGGRGGFPSGGGGGGGQQRAGDWKCPNPTCENMNFSWRNECNQCKAPKPDGPGGGPGGSHMGGNYGDDRRGGRGGYDRGGYRGRGGDRGGFRGGRGGGDRGGFGPGKMDSRGEHRQDRRERPY
Difference (log2), untreated vs GFP (GFP-14-3-3β): -0.2742 log2
